According to the supplement of paper PMC9112550, “Optimization of the antimicrobial peptide Bac7 by deep mutational scanning” (BMC Biology, 2022):

These sequences were tested on Escherichia coli TOP10 (assay: shrunken log2 fold change of peptide-encoding DNA abundance (4.5 h post-induction vs induction); higher = less antimicrobial activity (less host growth inhibition)). Settings: time post-induction: 4.5 h; library: site-saturation at positions 5, 18, 19, 20.
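Further: peptides expressed intracellularly from a pBAD plasmid library in pooled LB shake-flask culture, induced with 0.3% L-arabinose, DNA abundance read by NGS, three biological replicates, DESeq2 with apeglm shrinkage.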

Point of comparison: RRIRKRPPRLPRPRPRPSRKPRP, “shrunken log2 fold change” value 0.0758. Against it:
- RRIRQRPPRLPRPRPRPRMSPRP — within 0.2 log units, 0.208
- RRIRLRPPRLPRPRPRPNYKPRP — lower, -0.752
- RRIRNRPPRLPRPRPRPSKSPRP — lower, -0.227
- RRIRYRPPRLPRPRPRPQFEPRP — within 0.2 log units, -0.106
- RRIRSRPPRLPRPRPRPRLIPRP — higher, 0.288
- RRIRERPPRLPRPRPRPEAHPRP — within 0.2 log units, 0.201
- RRIRHRPPRLPRPRPRPMWAPRP — within 0.2 log units, -0.0936
- RRIRCRPPRLPRPRPRPRCTPRP — within 0.2 log units, -0.00347
- RRIRRRPPRLPRPRPRPCSYPRP — lower, -0.19
- RRIRLRPPRLPRPRPRPNTRPRP — lower, -0.273
- RRIRERPPRLPRPRPRPKNGPRP — within 0.2 log units, -0.0133
- RRIRWRPPRLPRPRPRPMCWPRP — higher, 0.883
- RRIRERPPRLPRPRPRPKLQPRP — within 0.2 log units, 0.00297
- RRIRDRPPRLPRPRPRPWLAPRP — within 0.2 log units, 0.171
- RRIRFRPPRLPRPRPRPSQFPRP — lower, -0.44
- RRIRTRPPRLPRPRPRPYCYPRP — within 0.2 log units, -0.104
- RRIRVRPPRLPRPRPRPWFKPRP — within 0.2 log units, 0.0333
- RRIRRRPPRLPRPRPRPLRNPRP — higher, 0.94
- RRIRARPPRLPRPRPRPCHYPRP — within 0.2 log units, -0.00197
- RRIRERPPRLPRPRPRPGEVPRP — within 0.2 log units, 0.0814
- RRIRRRPPRLPRPRPRPIIFPRP — within 0.2 log units, -0.0332
- RRIRMRPPRLPRPRPRPHFDPRP — within 0.2 log units, -0.0378
- RRIRNRPPRLPRPRPRPMAVPRP — within 0.2 log units, -0.0402
- RRIRFRPPRLPRPRPRPITFPRP — lower, -0.456
- RRIRGRPPRLPRPRPRPEEHPRP — within 0.2 log units, 0.131
- RRIRERPPRLPRPRPRPFQHPRP — lower, -0.252
- RRIRGRPPRLPRPRPRPAYAPRP — within 0.2 log units, 0.0503
- RRIRTRPPRLPRPRPRPELRPRP — within 0.2 log units, 0.225
- RRIRHRPPRLPRPRPRPHCGPRP — within 0.2 log units, -0.0402
- RRIRHRPPRLPRPRPRPDTYPRP — lower, -0.24
- RRIRHRPPRLPRPRPRPWNIPRP — lower, -0.246
- RRIRKRPPRLPRPRPRPKSNPRP — within 0.2 log units, 0.112
- RRIRLRPPRLPRPRPRPQNMPRP — lower, -0.232
- RRIRIRPPRLPRPRPRPNRVPRP — within 0.2 log units, -0.0802
- RRIRHRPPRLPRPRPRPYYWPRP — within 0.2 log units, -0.0132
- RRIRPRPPRLPRPRPRPGMSPRP — within 0.2 log units, 0.0989
- RRIRERPPRLPRPRPRPWVDPRP — lower, -0.665
- RRIRRRPPRLPRPRPRPIWLPRP — within 0.2 log units, 0.0778
- RRIRHRPPRLPRPRPRPPEEPRP — higher, 0.791
- RRIRQRPPRLPRPRPRPLQIPRP — within 0.2 log units, 0.223
- RRIRERPPRLPRPRPRPYCQPRP — within 0.2 log units, -0.0159
- RRIRFRPPRLPRPRPRPMWWPRP — within 0.2 log units, 0.0551
- RRIRGRPPRLPRPRPRPPIQPRP — higher, 0.341
- RRIRERPPRLPRPRPRPKEGPRP — lower, -0.129
- RRIRSRPPRLPRPRPRPCDEPRP — within 0.2 log units, 0.124
- RRIRTRPPRLPRPRPRPCVTPRP — lower, -0.208
- RRIRTRPPRLPRPRPRPCKTPRP — within 0.2 log units, -0.0173
- RRIRGRPPRLPRPRPRPQDKPRP — within 0.2 log units, 0.0315
- RRIRMRPPRLPRPRPRPILEPRP — within 0.2 log units, 0.142
- RRIRYRPPRLPRPRPRPTDWPRP — lower, -0.314
- RRIRVRPPRLPRPRPRPYPEPRP — higher, 1.13
- RRIRNRPPRLPRPRPRPRQAPRP — within 0.2 log units, 0.0453
- RRIRPRPPRLPRPRPRPHECPRP — lower, -1.31
- RRIRIRPPRLPRPRPRPCHEPRP — within 0.2 log units, -0.0297
- RRIRFRPPRLPRPRPRPIEVPRP — within 0.2 log units, 0.0653
- RRIRCRPPRLPRPRPRPNILPRP — lower, -0.701
- RRIRDRPPRLPRPRPRPPGQPRP — within 0.2 log units, 0.0311
- RRIRYRPPRLPRPRPRPGEWPRP — within 0.2 log units, 0.0486
- RRIRIRPPRLPRPRPRPAWTPRP — higher, 0.304
- RRIRKRPPRLPRPRPRPKCMPRP — within 0.2 log units, 0.15
- RRIRIRPPRLPRPRPRPPNEPRP — lower, -0.365
- RRIRDRPPRLPRPRPRPVICPRP — within 0.2 log units, 0.0219
- RRIRMRPPRLPRPRPRPPLSPRP — within 0.2 log units, 0.185
- RRIRVRPPRLPRPRPRPEGLPRP — within 0.2 log units, 0.0931
- RRIRKRPPRLPRPRPRPYHAPRP — within 0.2 log units, 0.0039
- RRIRTRPPRLPRPRPRPSYDPRP — lower, -0.495
- RRIRYRPPRLPRPRPRPTPEPRP — within 0.2 log units, 0.264
- RRIRIRPPRLPRPRPRPIDVPRP — within 0.2 log units, 0.00859
- RRIRFRPPRLPRPRPRPVGYPRP — lower, -0.129
- RRIRCRPPRLPRPRPRPGQQPRP — within 0.2 log units, 0.0269
- RRIRTRPPRLPRPRPRPISEPRP — within 0.2 log units, 0.00252
- RRIRQRPPRLPRPRPRPSFDPRP — within 0.2 log units, 0.182
- RRIRTRPPRLPRPRPRPWYKPRP — within 0.2 log units, -0.0134
- RRIRVRPPRLPRPRPRPFRWPRP — within 0.2 log units, -0.0443
